In patent US11786578B2, “Modified relaxin polypeptides and their uses” (AMBRX, INC., priority 2010, dated 2023):
Where two headings read alike, the source gives them in different places. Non-standard residues stand in square brackets, D forms with d. No end group written: not given here. Phe(4-Ac) = CC(=O)c1ccc(C[C@H](N)C(=O)O)cc1

Experiments:
human RXFP4 [1] = molecular target: T1, human RXFP4 (Homo sapiens, UniProt Q8TDU9); settings: literature value; read-out: EC50 value reported in the literature, human RXFP4; cited from earlier work
T1 construct: expressed in transfected cells
T1 sequence (Q8TDU9 whole entry): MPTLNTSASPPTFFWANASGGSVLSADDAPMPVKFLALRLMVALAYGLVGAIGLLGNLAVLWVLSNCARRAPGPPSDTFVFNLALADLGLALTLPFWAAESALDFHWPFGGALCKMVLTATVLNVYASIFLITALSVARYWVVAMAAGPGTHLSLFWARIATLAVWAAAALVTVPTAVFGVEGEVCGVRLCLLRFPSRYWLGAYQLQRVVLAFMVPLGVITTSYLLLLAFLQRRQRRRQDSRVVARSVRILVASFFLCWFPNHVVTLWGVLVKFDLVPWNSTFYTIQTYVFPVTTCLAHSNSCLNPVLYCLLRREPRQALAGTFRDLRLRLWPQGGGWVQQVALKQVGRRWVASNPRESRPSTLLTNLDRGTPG

human RXFP3 [2] = molecular target: T2, human RXFP3 (Homo sapiens, UniProt Q9NSD7); settings: literature value; read-out: EC50 value reported in the literature, human RXFP3; cited from earlier work
T2 sequence (Q9NSD7 1-469): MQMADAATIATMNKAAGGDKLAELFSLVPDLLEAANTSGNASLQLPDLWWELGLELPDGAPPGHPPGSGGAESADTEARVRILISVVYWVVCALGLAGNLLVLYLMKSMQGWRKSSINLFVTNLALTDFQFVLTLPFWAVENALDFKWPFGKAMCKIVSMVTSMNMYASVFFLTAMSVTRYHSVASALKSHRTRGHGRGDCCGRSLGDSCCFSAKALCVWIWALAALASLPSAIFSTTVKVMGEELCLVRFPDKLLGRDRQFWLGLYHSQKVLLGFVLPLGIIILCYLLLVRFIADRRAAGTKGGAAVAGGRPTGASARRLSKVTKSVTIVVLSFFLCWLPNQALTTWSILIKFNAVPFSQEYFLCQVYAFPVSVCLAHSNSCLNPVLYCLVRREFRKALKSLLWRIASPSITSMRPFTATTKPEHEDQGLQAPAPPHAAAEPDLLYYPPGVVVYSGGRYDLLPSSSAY

human RXFP4 [3] = molecular target: T1, human RXFP4; assay: Inhibition of forskolin-induced cAMP in human RXFP4/CHO-K1 stable line; format: cell-based
Source text: (§1) The RXFP cDNAs, RXFP family members, as well as species orthologs, were obtained from commercially available cDNA clones or amplified from tissue RNAs as follows. Human RXFP1: A cDNA clone was obtained from OpenBiosystems (MHS4426-99239031. Human RXFP2: A cDNA clone for transcript variant 1 was obtained from OpenBiosystems (OHS4559-99620528). Cynomolgus monkey RXFP1: The cDNA was cloned out of Mauritian cyno brain RNA by RT-PCR using the following primers: forward: 5′-[…]-3′ (SEQ ID NO: 37); reverse: 5′-[…]-3′ (SEQ ID NO: 38). Dog RXFP1: The cDNA was cloned out of dog brain RNA by RT-PCR using the following primers: forward: 5′-[…]-3′ (SEQ ID NO: 39); reverse: 5′-[…]-3′ (SEQ ID NO: 40). Rat RXFP1: The cDNA was cloned out of Sprague Dawley rat brain RNA by RT-PCR using the following primers: forward: 5′-[…]-3′ (SEQ ID NO: 41); reverse: 5′-[…]-3 (SEQ ID NO: 42)′. Human RXFP3: A Gateway entry clone in vector pDONR221 was obtained from Invitrogen (IOH28381). Human RXFP4: A Gateway entry clone in vector pDONR201 was obtained. Mouse RXFP1: A Gateway entry clone in vector pDONR223 was obtained from OpenBiosystems (OMM4760-101549000). Using standard procedures (Gateway LR recombination), the RXFP entry clones were transferred into expression vector pEF-DEST51 (Invitrogen). In contrast to the all other RXFP clones, human RXFP4 was transferred into pcDNA3.1 (Invitrogen). For each construct, the RXFP cDNA, as well as its proper insertion into the expression vector, was verified by DNA sequencing.
CHO-K1 cells (ATCC #CRL-9618) were prepared for stable line generation by propagating at 37° C. with 5% CO2 in F-12 plus GlutaMAX-I medium (GIBCO #31765) supplemented with 10% fetal bovine heat-inactivated serum (Invitrogen #16140), and 1× Antibiotic-Antimycotic (GIBCO #15240-096). CHO-K1 cells were transfected with 12 μg of the appropriate expression construct plasmid using the FuGENE® 6 reagent (Roche #11814443 001) and the protocol provided by the manufacturer. One day post-transfection cells were replated into medium containing 10 μg of Blasticidin S HCl per mL (GIBCO #A11139-02). […]

human RXFP3 [4] = molecular target: T2, human RXFP3; assay: Inhibition of forskolin-induced cAMP in human RXFP3/CHO-K1 stable line; format: cell-based; settings: CHO-K1 stable line
Source text: as §1, with “For each construct, the RXFP cDNA, as well as its proper insertion into the expression vector, was verified by DNA sequencing.” left out

[5] = PK of 20 kDa PEGylated relaxin polypeptides after a single subcutaneous injection in SD rats (Example 40); format: in vivo, Sprague-Dawley (SD) rats; settings: for AUCinf / CL (mL/hr) / Cmax / MRT / Tmax / Vz / Terminal HL / Mean serum Conc.: 0.5 mg/kg SC; for AUCinf / CL (mL/hr) / Cmax / MRT / Tmax / Vz / Terminal HL: SD rats; for Terminal HL: non-compartmental; for Mean serum Conc.: male SD rats; for In vivo PK Term HL: 20K PEG
Source text: This example evaluates the pharmacokinetic properties of 20 kDa PEGylated relaxin polypeptides following a single subcutaneous injection in SD rats.
1st order elimination model and Gauss-Newton (Levenberg-Hartley) model fit equation. […] FIG. 8A-8/compares group mean serum concentration versus time for all PEG-Relaxin compounds dosed. All dose groups had measurable serum PEG-Relaxin levels.

Substance	AUCinf [5]	CL (mL/hr) [5]	Cmax [5]	MRT [5]	Tmax [5]	Vz [5]	Terminal HL [5]	Mean serum Conc. ([5]; 1 hr)	Mean serum Conc. ([5]; 2 hr)	Mean serum Conc. ([5]; 4 hr)	Mean serum Conc. ([5]; 8 hr)	Mean serum Conc. ([5]; 12 hr)	Mean serum Conc. ([5]; 25 hr)	Mean serum Conc. ([5]; 34 hr)	Mean serum Conc. ([5]; 50 hr)	Mean serum Conc. ([5]; 58 hr)	Mean serum Conc. ([5]; 73 hr)	Mean serum Conc. ([5]; 80 hr)	Mean serum Conc. ([5]; pre-dose (PD))	In vivo PK Term HL [5]	further results
H3-RLX: H3-relaxin, the endogenous ligand for RXFP3 and RXFP4 receptors, positive control																					EC50 (human RXFP4 [1]): 1.1 nM; EC50 (human RXFP3 [2]): 0.4 nM; Maximal inhibition of forskolin-induced cAMP, human RXFP4 (partial agonist activity) (human RXFP4 [3]): ~40%; EC50 (human RXFP4 [3]; CHO-K1 stable line, inhibition of forskolin-induced cAMP): 2.8 ± 1.5 nM; EC50 (human RXFP3 [4]): 0.6 nM
RLX-A-AA5-20KPEG-001: relaxin variant, B1 Ala, pAF at A chain position A5, 20K PEGylated (chain 1 QLYSXLANKCCHVGCTKRSLARFC; chain 2 ASWMEEVIKLCGRELVRAQIAICGMSTWS; not fully specified; non-natural residues)	16095.9 ng·h/mL	0.518 mL/min/kg	438.0 ng/mL	29.4 h	25.0 h	0.5474 L/kg	12.2 h	19.9 ng/mL	100.1 ng/mL	185.0 ng/mL	264.7 ng/mL	434.3 ng/mL	438.0 ng/mL	353.5 ng/mL	86.9 ng/mL	62.4 ng/mL	32.8 ng/mL	22.1 ng/mL	BQL	12.2 h	
RLX-A-AR18-20KPEG-001: relaxin variant, B1 Ala, pAF at A chain position R18, 20K PEGylated (chain 1 QLYSALANKCCHVGCTKXSLARFC; chain 2 ASWMEEVIKLCGRELVRAQIAICGMSTWS; not fully specified; non-natural residues)	12985.5 ng·h/mL	0.64 mL/min/kg	345.9 ng/mL	27.7 h	25.0 h	0.6947 L/kg	12.5 h	33.9 ng/mL	109.7 ng/mL	172.7 ng/mL	270.5 ng/mL	332.5 ng/mL	398.6 ng/mL	264.3 ng/mL	76.7 ng/mL	61.8 ng/mL	25.0 ng/mL	14.9 ng/mL	BQL	12.5 h	
RLX-A-AV13-20KPEG-001: relaxin variant, B1 Ala, pAF substituted for valine 13 in the A chain, 20K PEG attached (chain 1 QLYSALANKCCHXGCTKRSLARFC; chain 2 ASWMEEVIKLCGRELVRAQIAICGMSTWS; not fully specified; non-natural residues)	32230.5 ng·h/mL	0.258 mL/min/kg	742.5 ng/mL	32.7 h	25.0 h	0.3254 L/kg	14.6 h	44.9 ng/mL	138.9 ng/mL	345.7 ng/mL	533.6 ng/mL	630.1 ng/mL	742.5 ng/mL	540.7 ng/mL	320.9 ng/mL	209.4 ng/mL	75.0 ng/mL	58.7 ng/mL	BQL		
RLX-A-BV7-20KPEG-001: relaxin variant, B1 Ala, pAF at B chain position V7, 20K PEGylated (chain 1 QLYSALANKCCHVGCTKRSLARFC; chain 2 ASWMEE[Phe(4-Ac)](PEG 20 kDa)IKLCGRELVRAQIAICGMSTWS; not fully specified (bridges); ends and bridges not checked)	17260.9 ng·h/mL	0.482 mL/min/kg	471.6 ng/mL	27.9 h	12.0 h	0.5469 L/kg	13.1 h	25.7 ng/mL	98.9 ng/mL	248.5 ng/mL	343.5 ng/mL	457.3 ng/mL	518.5 ng/mL	270.4 ng/mL	104.0 ng/mL	63.5 ng/mL	26.0 ng/mL	22.6 ng/mL	BQL	13.1 h	
RLX-A-BW28-20KPEG-001: relaxin variant, B1 Ala, pAF at B chain position W28, 20K PEGylated (chain 1 QLYSALANKCCHVGCTKRSLARFC; chain 2 ASWMEEVIKLCGRELVRAQIAICGMST[Phe(4-Ac)](PEG 20 kDa)S; not fully specified (bridges); ends and bridges not checked)	22191.2 ng·h/mL	0.375 mL/min/kg	511.0 ng/mL	31.1 h	25.0 h	0.4526 L/kg	13.9 h	36.4 ng/mL		228.5 ng/mL	380.9 ng/mL	486.6 ng/mL	511.0 ng/mL	404.8 ng/mL	184.2 ng/mL	122.3 ng/mL	48.8 ng/mL	37.1 ng/mL	BQL	13.9 h	
